Laboratory results reported in the supplement of paper PMC12636428.

Tested on: Saccharomyces cerevisiae
Test: transcriptional activation domain activity (GFP:mCherry ratio, weighted mean of sorted bins, harmonized to initial dataset scale) (arbitrary fluorescence ratio units); higher = stronger transcriptional activation
Conditions: beta-estradiol 1 µM; induction time 4 h
How it was run: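 Barcoded tiles were sequenced after cells were sorted into 8 bins by GFP:mCherry ratio. Before sorting, cultures had been diluted 1:5 into SC with 1 uM beta-estradiol and held for 4 hours at 30 °C. The tiles were fused to an estradiol-inducible synthetic transcription factor and integrated at URA3 in yeast diploids carrying a GFP reporter. Activation activity is the read-weighted mean of bin median fluorescence, averaged over barcodes and linearly mapped onto the initial dataset scale, and tiles under 50 reads were left out.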

| Sequence | transcriptional activation domain activity |
| --- | --- |
| IYCAGWVFRYFFLFPYRLSLLLAATLFFFLALPIVLYFKNDEWQRWLFRFYCQ | 57500 |
| MVILMMGGEYGHFLGFSFYYFLHVWDGEEYYYCCGFYLSQSLLSILLCILLYL | 55400 |
| MGSGFCNGVFFYYLFFFFISLCVILSSFLLFFFSLPLFLGGLFFSTFLFLDAR | 58900 |
| MFFIIILFLVIYSGKISSNFLSFLYRLLLFMLISAQLSVLHCYCLYIFHRCYC | 30900 |
| TPIFMLIRIMIIGAHGVYQTAYRIVTKTQWEDGREIEDVYTYVGNERIDIKIV | 28300 |
| MTSPPPPSITVSHLALVPFFRTPVSAYSLLFLLFFRLGLCLSCWLFLLFSFLF | 65800 |
| IWVAPWNAGKILFFLIRYLVFVDTSVSIVYLAGGPLTLSRCHTLFGWFTASFT | 74800 |
| RMMREDYFPVARLFYCAFMLIHPHFEIPRFWQMGMHILHMLASLNYRPAILTM | 68400 |
| ATAARRPRADEGEEGLDEATDAAAAPAAAAENGEAAAAKPKKNRKSKAAKAAA | 16300 |
| GMKRFLPLCFVMYTLWCTTISITWKLICFLSVTADSTPTIQWRLLCMLFWYLF | 33700 |
| LALQTMYFIPDIPQQALVDFWPRIWPWVQFFDIYGDIIRLCPPLQLYWVFFAY | 25500 |
| MARQPSAPNAASDRGAATTTPRKPTTRSRTGCSACRKRRTKCDEARPACGHCV | 44600 |
| CLTQGLGICRDAENPEVNPDTATGEEGDVRTRCFQRDSLKDQVIVLAFLIITT | 28900 |
| FWVWMMTSPAFPLKLFIPLFHLTILLIPFTSQFFTPALPITSWLICFFSSKFI | 49200 |
| SLLAKCDNGDVLKLQEAIEEDDAAREERERAERAAAALKREKEGSASRVLVTG | 38800 |
| GLFASCWQRFAQAYRPCIGLTRIFVLCLLEVVLWLKGLEILFWFFLWCWCTTT | 50200 |
| GAARVQVDFWFFLFVYYGLYNLTALIWITKVFNLYSLNWWPQSLGFPLTVSLI | 61300 |
| PKSRPKKAKEEAVATGALGATGVVPEKRKRGRPRKIQPPIDGVALVAPPVAAP | 51700 |
| MFFLSSFSALLAFSPPPSLLLLLLLLLTFPLSGFLALFLPRFSISLLTLSFFY | 50700 |
| MATFLSCLRPFVCSFFLFSFLFRPWPWVYIHVGFGGNSCSTFDFLSIFFVTFF | 43300 |
| QQGGGAAASSSGAAQTTSDHVHKDEKEEDKDRDKKKEEEEKEKRKKRREKNKK | 23700 |

| Sequence | transcriptional activation domain activity |
| --- | --- |
| GVSMGSGYFFMVWLTMWLYSELNFWVIDGVCSLVEMQWMPFFILSWIICQVAG | 50800 |
| EKQKKKRKRGKRRRRRRNEKEEKEGEEEEEEKQEAKEEAKEEAKEEAKKKEKK | 24600 |
| PTPSGDPEEEEEGEGEEGGEERGGGGGGGGGKKKNHAGAIAGGVVGGVAVIGL | 24600 |
| NKHVFLILIRSTLCNNWLIATIWVVEIRFCLDLLQTAFPLIFFRFLTWLFFFQ | 79900 |
| GCLLTFPNKIDWATLVIILFSETFTICLLLIKGFYWVISSAHKVGDRVLYYVA | 50800 |
| SASSSAPRKPVSISIGGGGGGAAAAAAAPPADKKPVSISIGGSSAKAAAPAAA | 38800 |
| EEVKPVMAAETKPEEKKASEEAKPEEKSAETSTDKSSGVNRNAVAAAASAATS | 32400 |
| GILFATEGLYTMRFSSWYVRGLFISASIMLFFCYVVARVIIVVVMFTSLRGLP | 49900 |
| MSTVPRLRLHLHLHLHLHLRLHLHLQLSTPKPTEDGAEHGTERGTERGTERGT | 49700 |
| GKGEEEVEEEERLYDRLVIANGHYRVPFVPPLPGLAAWQRAGRATHAAWYRAA | 59800 |
| VLLLKTLLSPVVVPDLDDHSLVLKQFKTFHWQRKNLTSVINILAQALYSLFAA | 27800 |
| NLMIIVLVVSNLRLMIENYRKYGVLICIQCHDYRQQDILYGLILYLLVPCHLF | 39400 |
| MCQWWQIVLIRWMNLQILKYWAVEVKPLMMMWRRLIVIIIVILYRNFFFFFLM | 30900 |
| GEGEEDDVNGNKKRASDRSSSPKSKRSRKDEEEKEKEKKPTVKKPRQTKPKTT | 31300 |
| HHLRLHWFADVLNYRARDTLFSILRIVSHIRSLRLFAVYLLRWERQRHEAKTV | 49800 |
| MNQTSCFFSAFFLFALFLSFPSFLLPSFFLLFLLFYFFPSYLLLCLFSLIFYK | 57200 |
| KSPEKEATKDGDGKPEGTTGTGRGRGRGRGRGGGRGRGRGRGGAVAEKGSYKA | < 6570 |
| TRMLLHWFHCQDNVWYYYVAFFFAELLVYTVMIVSIGSILFQWRFFCRVAYKM | 32000 |
| VFVPIPGLRNRRVHILLPNLYLLHQITFFRFSRRRSTLVLLLVCVSIVFAMYA | 36500 |
| LAMQGFFRTFGLLCINFDSAFRLATFFLPNMIQYTGYLIPTFQMKRWLFWISY | 43200 |
| FFTPPSTTYLRFFLSFYPLSPFIFFFIFLSFSLPLSSFLSFSISFFFTFPFPF | 36100 |

| Sequence | transcriptional activation domain activity |
| --- | --- |
| RKAKATAKEGDKEKSDGGEKLKKASKRSDGEDDKAGQRSSGNKKSRAKKRAED | 16400 |
| SAEHQTEAYESDGGRQCVRLLLTSYCSPILIVALHPVLPGRFLCVVKLATQKS | 39900 |
| MSWIVWSGKHIHMSCNFIFIICPNNMKYMLSVFWRWFYKRSVIWKVWIRLFFI | 47600 |
| ASLEGGGGVVDISGETSSYVWRVLVYLAFINPFFCFLCALYAILILLAVLVTY | 29300 |
| MNYLFSCFKFFLFFFFFLLFSFSPHLFFIFSCLLYLACLCVCVWWKGPFSCIS | 72500 |
| TDMDLKILEDLCNISSLYEVPFGKHINHHDHNNAGNGCDGSSTGNNENGNQTM | 77600 |
| MDAAVATEPIPKKRGRPRKVASEETPAVEPKGVRKASTKTAAAVKKEEAPKKV | 37900 |
| KSKKRSRVDEEDEEEYGASSSKAKAKKDKEKPAKKAAAKGKEKAAKGKASAKG | 26200 |
| IDHTDIHAHHADAHDDSFIESEEWLSKFIMDSQIDNDLKLNINHFNDIGFNNL | 154000 |
| MYVISGFVFLIGLLLFVMLFDTTHLCVLVLFSFLYHSGSLCRPCHTPVILLYF | 44000 |
| MGLIIYLGHMGCLMPRDDPTLFTIIHTNGIHHVCIVFCSCAISVHPWQQLLCH | 29000 |
| VPGEVSEAEANGETKAEDAPAAEGDAAKPKKKKKKAAKKAKSANGEATEGAPA | < 6570 |
| SSPKKKGASKSDSAGRGNTAAAAKGRGKAKANAKGSPKKGGGGSARKRRKTAE | 41100 |
| PVKAIEAPLAEEKSEEKEAEPEKAEEAEEEVTEKPAAKKAKGGKKGAKGKKVK | 46800 |
| TPYWVLWNLRSSYGPVWQFLLKWIPFNMLLHRYYHCVKMELGYLFIFGNDFLR | 56300 |
| MFFCSFFRWGFIFFFSFLFFSFILLCWCFLVFLNFATDPACNLPFSFLVFIPR | 57600 |
| ICGSVLKELEHKPFFIWFLRCVYHKVLVVLKNGPSAVVSVAEVQRPPQIGDEV | 30400 |
| MLFVFAQLHQVPLSEYFLLGCLYWFFYHIIFSSIFRPSHSIGMASGLPMLYTP | 45000 |
| MTNLFSASFLSSSSSLSFFFSLFFLLFQRYLLEERPLTIMAFYLLPFFFSLSL | 29800 |
| ISYVSLEIRRTVFGLRLFAVAFYCTFFYWLMIRPNCKARFWCNFQPFSWIQAI | 43100 |
| KGKGRREGGEGGEEREGNRERKRGRGREGKGGKERGNGRGKEGQRKEEREGKG | 33500 |

| Sequence | transcriptional activation domain activity |
| --- | --- |
| LHGSIHEGLCRMLINIFIENLVLKEDVLLALCIQVLFPKEYITKGLMDAIKKD | 13900 |
| IPHGKVGDIFLLFEFSYPIISTIIILFYYYYFYYLLSLHILYFFYYSRCWLLV | 42300 |
| TLGFVGFVTTLKKVTLRRQFGLFCWIHISLFLIVVSSHFIVNSILEGLIWFWL | 74700 |
| ESERHSRRRKSVKGKGKAKEVQKKRASKDKTSKRKGKGEKRKRGEEEGRSANK | 60200 |
| MNLSRYAVVLATQWGILIMLAMNQLCIPSFLTMFAYIPTKVLQFFHYFIVSLF | 47700 |
| IQTYEIVGLTSCSLNVVLLPFAFYLVTLCFKTSERSPLLSMLCRLFFLPLTCG | 45100 |
| AMERLRAAEKTAKEKRLCLYANAPAANSSSKGTTAATSRGGAFEATVVRVWSG | 61100 |
| MIHCMLLVGSTCPFFSLFLIAYFYDAIYDLAQFDMWSLLLCIYWDISPIFLFP | 48100 |
| VHLGVLFTLSIPYVRLWLIPRLFVCIFVRAFLFLLLFSGIVYPEFFFFFFFLR | 40800 |
| FYFSWIAQEKYTDAFLLKPLGHYLGTRQLNQENIFIAYYIFVLACHYTFLYVS | 33300 |
| MSFKKDEETGVSSFYQDKTSVIQEARVFNETPISPRKCRILLTKVIYLLYSGE | 44100 |
| MRFWFLYLFLLFGIGWVGLALLYYYRIFCLFLCNIRILFLLVCFISTHSIIYS | 46200 |
| MLVRISLFLTLPFTLNLLPTMDLCCIGNVKILNYLSKCIHGSLCNHSIILIRL | 56300 |
| RALLLLSYCAFLKTTGVTDGEIVQLISTSAELKFRPWSLVRGAECVNRCITAL | 47400 |
| GFTTLSMMHATVFHGDLISFKHFLELYRHSPLLILYICGYKNTEYYAARYFYS | 34700 |
| IIFLIMRAMVGLQVLNENVIEKILMYLKLQWVAVFIYWQVLWLVKFSLLIFFK | 75400 |
| EVKAESKPESKVEPKTEAKPEPKAEPKSEPKVEPKKSESSKKNKKKKAKKAAA | 33700 |
| MLLLLIIRKVLILGKPFFINHLHILLYPDTVLSPFLLLSFPLTLPLSLLLLLL | 106000 |
| LQTYMRSLEWTILTCSVIEIIEKLKMAPENMHELSPLCVKLIIKFCLTEILSY | 43400 |
| MRKTCRFICNVTRMRTVWIKALERVCARHGVFKPTFPLQRMSILDLEYASLGP | 52200 |
